Article PMC11389940, “The chemokine receptor CCR8 is not a high-affinity receptor for the human chemokine CCL18” (PLOS ONE, 2024)

Key:
[1] = target: T1, human CCR3 expressed on 4DE4 cells (human) (UniProt P51677)
T1 sequence: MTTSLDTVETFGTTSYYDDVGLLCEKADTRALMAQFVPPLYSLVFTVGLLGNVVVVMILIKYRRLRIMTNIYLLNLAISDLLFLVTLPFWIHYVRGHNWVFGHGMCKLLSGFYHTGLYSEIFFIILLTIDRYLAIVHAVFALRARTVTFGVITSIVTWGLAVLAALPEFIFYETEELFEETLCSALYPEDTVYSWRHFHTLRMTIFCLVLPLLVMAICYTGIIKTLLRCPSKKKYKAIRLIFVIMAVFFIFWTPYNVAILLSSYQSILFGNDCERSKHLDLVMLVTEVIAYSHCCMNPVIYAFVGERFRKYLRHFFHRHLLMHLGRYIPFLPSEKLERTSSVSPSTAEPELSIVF

[2] = target: T2, mCCR8 tagged at the N-terminus with a C-myc epitope tag and at the C-terminus with Renilla luciferase variant 8 (mouse) (UniProt P56484)
T2 sequence: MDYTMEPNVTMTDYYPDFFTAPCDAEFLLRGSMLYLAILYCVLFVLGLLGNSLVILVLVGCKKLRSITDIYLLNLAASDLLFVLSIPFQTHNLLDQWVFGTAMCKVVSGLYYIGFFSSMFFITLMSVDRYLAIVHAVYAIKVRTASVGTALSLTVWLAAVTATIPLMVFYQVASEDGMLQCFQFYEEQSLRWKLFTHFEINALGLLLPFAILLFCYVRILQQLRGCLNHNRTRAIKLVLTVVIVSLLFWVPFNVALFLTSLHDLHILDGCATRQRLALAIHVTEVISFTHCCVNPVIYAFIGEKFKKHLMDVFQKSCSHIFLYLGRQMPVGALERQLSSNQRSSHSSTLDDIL

[3] = target: T3, mouse CCR8 expressed on FlpInCHO cells (mouse) (UniProt P56484)
T3 sequence: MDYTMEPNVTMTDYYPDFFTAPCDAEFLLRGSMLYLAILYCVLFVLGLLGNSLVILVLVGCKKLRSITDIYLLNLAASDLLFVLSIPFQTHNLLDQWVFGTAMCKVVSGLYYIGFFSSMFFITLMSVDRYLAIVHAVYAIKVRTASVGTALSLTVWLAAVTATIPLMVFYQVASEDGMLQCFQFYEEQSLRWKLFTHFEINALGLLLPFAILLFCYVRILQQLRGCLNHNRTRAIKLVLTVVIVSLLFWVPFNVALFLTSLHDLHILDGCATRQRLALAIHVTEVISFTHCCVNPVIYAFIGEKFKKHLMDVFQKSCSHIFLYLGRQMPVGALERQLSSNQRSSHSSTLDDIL

[4] = target: CCR8 tagged at the N-terminus with a C-myc epitope tag and at the C-terminus with Renilla luciferase variant 8 (human, UniProt P51685 1-355); experiment: cell-based or functional assay
[5] = target: human CCR8 expressed on transfected cells (human, UniProt P51685 1-355); experiment: cell-based or functional assay
Chain of human CCR8 expressed on transfected cells (P51685 whole entry): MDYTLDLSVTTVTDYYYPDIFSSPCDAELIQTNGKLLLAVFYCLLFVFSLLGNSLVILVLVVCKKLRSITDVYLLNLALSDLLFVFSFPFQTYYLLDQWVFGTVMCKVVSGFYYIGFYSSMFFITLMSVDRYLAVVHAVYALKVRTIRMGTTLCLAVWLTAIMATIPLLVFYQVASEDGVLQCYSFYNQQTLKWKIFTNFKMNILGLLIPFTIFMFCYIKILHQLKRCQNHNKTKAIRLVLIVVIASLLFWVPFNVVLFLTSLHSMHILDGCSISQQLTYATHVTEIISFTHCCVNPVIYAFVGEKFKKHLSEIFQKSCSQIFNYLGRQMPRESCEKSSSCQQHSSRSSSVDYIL

Chain of CCR8 tagged at the N-terminus with a C-myc epitope tag and at the C-terminus with Renilla luciferase variant 8 (P51685 whole entry, change not shown): as the sequence (P51685 whole entry) above

B1: CCL18(1–69) (ligand)
chain: AQVGTNKELCCLVYTSWQIPQKFIVDYSETSPQCPKPGVILLTKRGRQICADPNKKWVQKYISDLKLNA
inhibition by CCL18 of chemotaxis of 4DE4-CCR3 cells to 1 nM CCL11 (blocks CCL11 with CCR3); 50% inhibitory concentration [1]: < 50 nM

B2: murine CCL1 (ligand)
chain: KSMLTVSNSCCLNTLKKELPLKFIQCYRKMGSSCPDPPAVVFRLNKGRESCASTNKTWVQNHLKKVNPC
β-arrestin2 recruitment to mCCR8 (BRET) in FlpIn CHO cells; EC50 of mCCL1 [2]: 24 nM | G protein activation in FlpIn CHO cells stably expressing mCCR8; EC50 [3]: 11 nM | cAMP inhibition in FlpIn CHO cells stably expressing mCCR8; EC50 [3]: 30 nM

B3: CCL1 (ligand, human, UniProt P22362 24-96, looked up)
chain: KSMQVPFSRCCFSFAEQEIPLRAILCYRNTSSICSNEGLIFKLKRGKEACALDTVGWVQRHRKMLRHCPSKRK
β-arrestin2 recruitment to CCR8 (BRET) in FlpIn CHO cells; EC50 of CCL1 [4]: 21 nM | G protein activation (Gαi2; BRET of Gβγ with a GRK fragment) in FlpIn CHO cells stably expressing CCR8; EC50 [5]: 46 nM | inhibition of forskolin-stimulated cAMP synthesis (CAMYEL biosensor) in FlpIn CHO cells stably expressing CCR8; EC50 [5]: 26 nM
